Source: the supplement of paper PMC9112550, “Optimization of the antimicrobial peptide Bac7 by deep mutational scanning” (BMC Biology, 2022)

test system: Escherichia coli TOP10; experiment: shrunken log2 fold change of peptide-encoding DNA abundance (4.5 h post-induction vs induction); higher = less antimicrobial activity (less host growth inhibition); details: time post-induction: 4.5 h; library: site-saturation at positions 5, 18, 19, 20
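Further: peptides expressed intracellularly from a pBAD plasmid library in pooled LB shake-flask culture, induced with 0.3% L-arabinose, DNA abundance read by NGS, three biological replicates, DESeq2 with apeglm shrinkage.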

Sequence | shrunken log2 fold change
RRIRMRPPRLPRPRPRPRETPRP | 1.49
RRIRMRPPRLPRPRPRPRFFPRP | 0.286
RRIRMRPPRLPRPRPRPRGGPRP | 1.26
RRIRMRPPRLPRPRPRPRHEPRP | 0.532
RRIRMRPPRLPRPRPRPRKGPRP | 0.81
RRIRMRPPRLPRPRPRPRKHPRP | 0.826
RRIRMRPPRLPRPRPRPRKQPRP | 0.938
RRIRMRPPRLPRPRPRPRKYPRP | 0.276
RRIRMRPPRLPRPRPRPRLCPRP | 1.66
RRIRMRPPRLPRPRPRPRLIPRP | 0.0709
RRIRMRPPRLPRPRPRPRLWPRP | 0.103
RRIRMRPPRLPRPRPRPRMCPRP | 0.0537
RRIRMRPPRLPRPRPRPRMDPRP | 0.356
RRIRMRPPRLPRPRPRPRMSPRP | 0.353
RRIRMRPPRLPRPRPRPRMYPRP | -0.0804
RRIRMRPPRLPRPRPRPRPRPRP | 1.68
RRIRMRPPRLPRPRPRPRQYPRP | -0.0556
RRIRMRPPRLPRPRPRPRVFPRP | 0.947
RRIRMRPPRLPRPRPRPRWYPRP | 0.0191
RRIRMRPPRLPRPRPRPSCHPRP | -0.0523

Sequence | shrunken log2 fold change
RRIRMRPPRLPRPRPRPSCKPRP | 0.0347
RRIRMRPPRLPRPRPRPSCLPRP | -0.0926
RRIRMRPPRLPRPRPRPSCRPRP | 0.46
RRIRMRPPRLPRPRPRPSDEPRP | 0.958
RRIRMRPPRLPRPRPRPSEHPRP | 0.0665
RRIRMRPPRLPRPRPRPSEKPRP | 0.938
RRIRMRPPRLPRPRPRPSGVPRP | 0.0246
RRIRMRPPRLPRPRPRPSHVPRP | -0.0609
RRIRMRPPRLPRPRPRPSHYPRP | -0.201
RRIRMRPPRLPRPRPRPSIPPRP | -0.316
RRIRMRPPRLPRPRPRPSIQPRP | 0.0104
RRIRMRPPRLPRPRPRPSKYPRP | -0.166
RRIRMRPPRLPRPRPRPSLCPRP | 0.694
RRIRMRPPRLPRPRPRPSLDPRP | 0.663
RRIRMRPPRLPRPRPRPSLHPRP | -0.222
RRIRMRPPRLPRPRPRPSLLPRP | 0.0721
RRIRMRPPRLPRPRPRPSLSPRP | 0.22
RRIRMRPPRLPRPRPRPSLTPRP | 0.806
RRIRMRPPRLPRPRPRPSMHPRP | 0.377
RRIRMRPPRLPRPRPRPSMRPRP | 0.429

Sequence | shrunken log2 fold change
RRIRMRPPRLPRPRPRPSNAPRP | 0.405
RRIRMRPPRLPRPRPRPSPKPRP | 0.593
RRIRMRPPRLPRPRPRPSPMPRP | 0.369
RRIRMRPPRLPRPRPRPSPYPRP | -0.0611
RRIRMRPPRLPRPRPRPSQGPRP | 0.179
RRIRMRPPRLPRPRPRPSSCPRP | 0.112
RRIRMRPPRLPRPRPRPSSMPRP | -0.0815
RRIRMRPPRLPRPRPRPSVNPRP | -0.0473
RRIRMRPPRLPRPRPRPSVPPRP | -0.0568
RRIRMRPPRLPRPRPRPSVVPRP | 0.124
RRIRMRPPRLPRPRPRPSWEPRP | 0.302
RRIRMRPPRLPRPRPRPTDFPRP | -0.0135
RRIRMRPPRLPRPRPRPTDYPRP | 0.166
RRIRMRPPRLPRPRPRPTEAPRP | 0.0796
RRIRMRPPRLPRPRPRPTFYPRP | -0.157
RRIRMRPPRLPRPRPRPTGKPRP | 0.562
RRIRMRPPRLPRPRPRPTGRPRP | 1.24
RRIRMRPPRLPRPRPRPTHIPRP | -0.363
RRIRMRPPRLPRPRPRPTIAPRP | 0.26
RRIRMRPPRLPRPRPRPTIGPRP | 0.277
